Data taken from publication PMC6237974.

What was measured:
[1] = molecular target: VgrS sensor (Xanthomonas campestris pv. campestris 8004); assay: MST; VgrS sensor labelled with NT-647, titrated with Prc forms in NTA buffer (300 mM NaCl, 50 mM sodium phosphate, pH 7.0) with 0.05% Tween; Monolith NT.115; three replicates
[2] = molecular target: VgrS sensor (Xanthomonas campestris pv. campestris 8004); assay: SPR; Biacore 3000, VgrS sensor trapped on a CM5 chip, Prc forms injected at 30 μl/min, 25 °C, PBST pH 7.4
VgrS sensor = assay: SPR
[3] = tested on: VgrR-P (phosphorylated by VgrS + ATP) (Xanthomonas campestris pv. campestris 8004); assay: MST; conditions: MST: 50 mM Tris-HCl pH 7.4, 150 mM NaCl, 10 mM MgCl2, 0.05% Tween-20; EMSA: 10 mM Tris-HCl pH 7.5, 50 mM KCl, 1 mM DTT, 50 ng poly(dI:dC), 10 mM EDTA, 28 C
[4] = molecular target: cytoplasmic region of VgrS that contained the HAMP and transmitter regions (Xanthomonas campestris pv. campestris 8004); assay: not stated; Supplementary Fig. 4b and 4c; Prc with the cytoplasmic region of VgrS
[5] = molecular target: Prc^S475A monomer (Xanthomonas campestris pv. campestris 8004); assay: SEC + AUC; Prc^S475A separated by gel filtration; sedimentation velocity of each peak at 20 °C, sodium phosphate buffer pH 8.0 plus 150 mM NaCl

Substance: PrcΔPDZ^S475A (enzyme)
- Kd [1]: 1.95 µM

Substance: recombinant Prc^S475A containing peptidase and DUF regions (domain or fragment)
- Kd [2]: 22.4 µM
- Kd [1]: 0.27 µM

Substance: recombinant Prc^S475A containing peptidase and DUF regions
- Ka (VgrS sensor; domain or fragment): 44700 M⁻¹

Substance: Prc^S475A monomer
- Ka (VgrS sensor; enzyme): 29500 M⁻¹
- koff (VgrS sensor; enzyme): 0.00842 s⁻¹

Substance: PXC_3300 promoter probe
- Kd [3]: 30.7 µM

Substance: Prc (form not told, binding to the cytoplasmic region of VgrS) (enzyme)
- Kd [4]: 191 µM

Substance: Prc^S475A monomer (enzyme)
- Kd [2]: 33.9 µM
- stoichiometry N [5]: 3
- Kd [1]: 0.65 µM
